# Source: the DeepSol protein solubility set
# Experiment: soluble on expression in E. coli; label from the status in PepcDB or PDB records
row,Sequence,soluble on expression in E. coli
1,MAALRVPLSQQQLEQLKANKKWGEYVEAQAGQKYEHFTSPYKQSMLTVKEWIMPQGLVIYVRTDDGTYPARVVNAGPDNICVRIVKANKSDPEPETQISYDQVIKSTEVLKMEPLKFKWIRKKTDNLYSIEAFQNLSGFFNKKVFELLKKGDFMEYQHDDEPWKCTIVEIIENHNGLIFIRNGLFVRCVHMFSPFCHELGWADKLKETNDERAAGMTYKILIKLENDRDQRVIVDRHIFRNNTISPHRFQDLQVLVYLEEDHFYLAHVKCKTRKTGLTDSYFFQISRGTELVRDSLLSDNKMPVQFHLNDARIFGYRDLERLHFPIDLPDGVQKIEGESNVDAYIRTYCLTDKEKARVPRLNESEKRAMFDRKILSNEIGVHMKHGAMLRDSKFNPTAGSLTPWAGTKCAEVSWFLPSSGRTRNRRADLLAARVVKYTEHIAHLYVARLDKTIYMHVADPRLHPAGFADGVNLPIEYSDAFAKDADIEIQISQLEETLDNLACEQDSTKDQN,not soluble
2,GMTLTRDSLLTLEAYAKVRRQEHARVIAHKKRRAVSIGNHLRLLFEDETTIRYQIHEMLHIEKIFDEDGIQAELDAYLPLVPDGSNLKATLQIEYENETQRRAALARLVGIEDRVFLRVDDEAPVYAIADEDLERDTAEKTSAVHFLRFELGDAMKAKLKAGAPLSIGCDHPHYPIQAARIDPDVAASLAGDLD,soluble
3,MSQLDNNLSVSVYMKGNVNNHEFEYDGIGGGDPNSGQFSLKTKLRGGKPLPFSYDIITMGFQYGFRAFTKYPEGIADYFKGSFPEAFQWNRRIEFEDGGVINMSSDITYKDKVLHGDVWALGVNFPPNGPVMKNEIVMEEPAEETLTAKNGVLVGFCPKAYLLKDGSYYYGHMTTFYRSKKSGQPLPGFHFIKHRLVKTKVEPGFKMVEQAEYATAHVCDLPKPN,soluble
4,MKIALIGASGYVGSALLKEALSRGHHVTALVSRPERIAAQANLAAAKVDVQDSAQLAEQLKGFDAVLSAFSGHAQAEQFDYFVKGIRSIIAAAKAAQAPRLLVVGGAGSLEVAPGVQLVDTPEFPEQWKASALGAREALNLLRAETELNWTLLSPSAMLQPGQRTGQFRLGKDQLLVDAEGNSHISVEDYAVAMIDELEKGEHQRSRFTVGYLEHHHHHH,soluble
5,MSLEQLLTNYSIETQTKSCEDFAFRIGFNDIKYMGGVSESAKDGNRKIYNEMLRYAMDKRNNIQAIIVYSMDRFSRHLASAAPDIEKLNKKNIILYSVQEQISSNDDMGIHFMNFKLSSSQFENRLRSSRARDGVRNRILMGKYPFATPPIGYNKDSDKNLVINEDGELLRKAFKMLLDGYSMMHIMKVMSRYGIIKPVNRWGEIFRNPIYAGLIVSKTNDNKPIKGIHQPIVSEKDFYKLQGIFEFKSKPRLKETDTIDIFPLKTLLQCPNGHGRLTGDIKKTKKNQPAYYKCNKCSFTASAQKANNAFLNLLSVVEFNQVFKDEFKEILDAVFENTFQEMTVKKNKLAREISIKETQLTNLFDAKFAEKINENKFEILSAKYTQSLEDMQKQLVFVTAELPEKKTFIEDCLIDLNNFEKLWDVAEYMDKQQIFNTIFKEKPSIVNNNHKIGLSNISLNPAFRSNLVELVHRKAIITGNYEGHHHHHH,not soluble
6,MGSDKIHHHHHHMENDFPLKGKTVLVTRNKAQAASFQQKVEALGGKAVLTSLITFRRALPNDVAEQVREDLAAPGWLVFTSVNGADFFFSYLKENQLILPAHKKIAAVGEKTARRLKMHNVSVDVMPQEYIAEQLADALKQHAEPGETITVMKGNLSRDVIKQELVPLGFEVKEWVLYETIPDEEGIEALKDAAGQYSFDYVTFTSSSTVHTFMHVLGEELKKWKANGTACISIGPLTNDALLTYGITSHTPDTFTIDGMLELMCSMSREEERI,not soluble
7,MSLTEIGIVAVGGYNEMGRNMTAIIIGEDIVILDMGLRLDRVQIHEDVEIDKMHSLELIEMGAIPDDTIMKEINGTVRAIVCTHGHLDHIGAIPKLAHRYNAPILATPYTAAIIRQQIESERKFEVCNRVIPLQAGGTYQVTEDISIEFIRVQHSIIDCVLAAVHTPAGAVLYACDFKLDRTPTMGEAPDFDRFKSLGKEGVIAMITESTNAGRSGKTPSEQIAKDMVRDVLLGTEESGVGMIVTTFASHIARLKAIIEAAEEMGRIPVLMGRSMERYVGAARDIGYLDLPSNVEIYGTRKDVDRAFKRIMQEGKNKYLPIVTGHQGEPGSILVRVANGETPYTIDPGDRIIFSANVIPSPMTQANRYALETKLRMKGGRIYDDVHVSGHAYREDHWELLRMVNPEHVIPAHGDMEMHGHYIEMAEDAGYVLGDTVHLLRNGEVLYIEEEGHHHHHH,soluble
8,MLTDTAAEGLSDSEVGREEPATAEEEQREQQPEKFEEPVFSAELDEEQTAPESQTEAVSEDEKAKEPSDSPVYNHHENAAEGAESPFVQEEQMDIRQEEPLFTDHEYSSEALAQAETVAKESEEPSESIINNHYDTLGEAQETKIDVQPDSHTELEKTEHMEQGSKSSTATLENRQEIRADKPREASEEPKKRPGVQEKRTEQSASSQKGPSVPFNVMMLKRDTHKQQKAEERRGSYVFPNVALLDVPPAQVQDDTAWIEEQRQLLDLTLKNFNVRANVVHVTQGPSVTRFEVHPEPGVKVNKITNLSDDIKLSLSAKDIRIEAPIPGKNTIGIEVPNRTSKVVDLRQMIRSSAFRTSKSPLTAALGLDISGNPVVIDLKKMPHGLIAGATGSGKSVCINTILVSLLYKADPSEVKVLLIDPKMVELAPYNKIPHLVSPVITDAKAATAALKWVVEEMERRYELFAHSGVRDIDRFNQLTAEHQMGEKLPYLVVIIDELADLMMVAPNDVEESIARIAQKARACGIHLLVATQRPSVDVITGLIKANIPTRIAFSVSSQVDSRTIIDIAGAEKLLGKGDMLFLENGSGKPVRLQGNFVSDREIDRVVSHVRSQMPPTYLFEQEELVRQGSALKEEDELFYEACEFVVEQNSASTSSLQRRFRIGYNRAARLIDMMEAEGMISEAKGSKPREVLITASDLINE,not soluble
9,MFDPPALKNSVISFLNKRRHSSGGYTLYEGLPDSKNTYYAIRSFEVLDHEPPRLEETLDWLEDVHRGGTFAAQGLFYRCSILRDYGRNFEIPEKFTEMLRTSYRKSSLEITFYMDSVLRMHGEYLDEIPEWVLSIQNEDGGFGAYGSDIINTRFALEILNGHGMKIPGDEVLQFTDSCFSDGAWNFTPISYPPYIETVHSGFRINEILRGKVSDVTRFIMKIRNPDGGFRRSVYMGISEPEYTYRAIYMLASIHGW,not soluble
10,MSLHRLNLNGYEPDRHHEAAVAFCIHAGTDELTSPVHQHRKGQLILALHGAITCTVENALWMVPPQYAVWIPGGVKHSNQVTANAELCFLFIEPSAVTMPTTCCTLKISPLCRELILTLANRTTTQRAEPMTRRLIQVLFDELPQQPQQQLHLPVSSHPKIRTMVEMMAKEPVEWGSLGQWAGFFAMSERNLARLIVKETGLSFRQWRQQLQLIMALQGLVKGDTVQKVAHTLGYDSTTAFITMFKKGLGQTPGRYIAGLTTVSPQSAKPDPREGHHHHHH,soluble
11,MNTNSYSMAQDNEEITKLEAPSTNKTNTLLSQSHAVVNHGDNGQINGKKTKEIHRVKRASDKKVSSKRVSRTWKIPKYPKKQPKSDQEHPGFNLDYMQPTTHPPHHN,soluble
12,KNRIGTKALNFTYTLASGAQGSLYQLKAEYLLLFINNPGCQACTETIEGLKNAPIINQLLQEKKLVLLSIYPDEELDEWKKHLSEFPNEWINGYDKKFTIKEEQVYDLKAIPTLYLLDKDKTVLLKDATAPAIEAYLMQHQ,not soluble
13,MSMLCSLYRITPEQVTKLKDFPDAIGELVGFTAPPPKVSFLSKLFGKPPKQLSSSGQQFEPVAESDIFELNQAWHILHFLFSGTNAESPWPGGFLISGGEEIGPDQGYGPIRLFDSELSRAVAGFLDTQSFKMLDSAYVASEIEATEIYWKVSSEHTERQRQLEELWSMVKELQTFFEHTVRAGNATLLSIY,not soluble
14,MEAIDMPYKITALQPFGVIVEPKHAPIHVNELDIDELRELFLREQLVLLRGFETFEHSEQFADYCERWGEVSVWPFGRVLDLVQKEDPGDHIFDSSYMPMHWDGMYRPQVPEYQIFQCVKAPLPGHGGRTTFSHTMLALQHAPQPDLELWQQVTGHYQRKMEFYHSKTVSPIVMQHPYRDYQVIRYNEPHFEENGDLLNPPDVSLSGITPEQAIEFHKSLRRALYDPRNFYAHEWQTGDIVITDNFSLLHGREAFTSHTPRHIRRVQVLSNPPYNNPSLESYQCPQK,not soluble
15,MDQQEPSNNVDTSSILSDDGMETQEQSSFVTATIDLTVDDYDETEIQEILDNGKAEEGTDEDSDLVEGILNANSDVQALLDAPSEQVAQALNSFFGNESEQEAVAAQRRVDAEKTAKDEAELKQQEEAEDLIIEDSIVKTDEEKQAVRRLKINEFLSWFTRLLPEQFKNFEFTNPNYLTESISDSPVVNVDKCKEIVKSFKESESLEGLSQKYELIDEDVLVAAICIGVLDTNNEEDVDFNVLCDDRIDDWSIEKCVTFLDYPNTGLNSKNGPLRFMQFTVTSPASAILMLTLIRLREEGHPCRLDFDSNPTDDLLLNFDQVEFSNNIIDTAVKYWDDQKENGAQDKIGRRVLIKLTTVLKNAVGSRNEIIQLVNEKIPDFDGTEAAVNESFTSDQRTEIINSRAIMETLKAEMKLAIAEAQKVYDTKTDFEKFFVLTVGDFCLARANPSDDAELTYAIVQDRVDAMTYKVKFIDTSQIRECNIRDLAMTTQGMYDPSLNTFGDVGLRVACRQVISSSQFGKKTIWLTGTAAGRRRAHRSDFLIFFDNGTDAYVSAPTMPGEPGYEVASEKKSVFSLKEMIAKMNAAQIAIMVGQPVGKEGNLDYFLTFHWIRQSHRSAYIRDFMKEFPEWPLLKMPVGMRICLYNSLVDRRKKMVTVIGTDRAFAIVRHEAPNPLAPGNRCTDFPCNDRNHQHIDEKIYRGSHRLEGAAHKKHMISTNNNLSQRRKDQLQSQFEPTDMIRSMPERNHQQVVKKKTTGTNQNVASTNDAKSKREIEIRKKNQFLFNKIIVPIPVLTPLENLKAHAQCGPDCLQKMDADPYEARFHRNSPIHTPLLCGWRRIMYTMSTGKKRGAVKKNIIYFSPCGAALHQISDVSEYIHVTRSLLTIDCFSFDARIDTATYITVDDKYLKVADFSLGTEGIPIPLVNSVDNDEPPSLEYSKRRFQYNDQVDISSVSRDFCSGCSCDGDCSDASKCECQQLSIEAMKRLPHNLQFDGHDELYESSEKQNKFLKLFFFRVPHYQNRLLSSKVISGLYECNDQCSCHRKSCYNRVVQNNIKYPMHVSLFNDDTYQLLFFLQIFKTAQSGWGVRALTDIPQSTFICTYVGAILTDDLADELRNADQYFADLDLKDTVELEKGREDHETDFGYGGDESDYDDEEGSDGDSGDDVMNKMVKRQDSSESGEETKRLTRQKRKQSKKSGKGGSVEKDDTTPRDSMEKDNIESKDEPVFNWDKYFEPFPLYVIDAKQRGNLGRFLNHSCDPNVHVQHVMYDTHDLRLPWVAFFTRKYVKAGDELTWDYQYTQDQTATTQLTCHCGAENCTGRLLKS,not soluble
16,MGSDKIHHHHHHMSTANIAPAIRIGVLGFGGLGQAAAKVLAGKREMKLVAVADQKGYAYAAAGLNFKDCIATYQSQGSVGYLEPVGSLGNNSIQDLIDSSQPVDGYFLALPNLPNDFIPSVARQFIQSGWRGVLVDAIKRTSAVEQLIAMKDELQAAGITYMTGCGATPGLLTAAAALAAQSYAEIHQVEITFGVGIANWEAYRATVREDIGHMPGYTVEAARAMTDAEVEALLDKTNGVLTLQNMEHADDVMLELAGIVERDRVTVGGVVDTRNPKKPLSTNVKVTGRTFEGKISTHTFTLGDETSMAANVCGPAFGYLKAGMQLHQRGIHGIFTAAEIMPQFVK,not soluble
17,MLHIVKHLEKLPLLSAYLLDGDVVLLTENAVYAAAVHSPYQASINDQNLWLVLYEDLHARGWLEKCDPRISVVTMSDFVDLTVTHDKSITW,not soluble
